Data taken from publication PMC2928128.

Target: GST-CDH23Δexon68ΔITEL (residues 847-1075)
Assay: SPR

Binder | Kd
harmonin-a Nter domain (residues 1-79) (domain or fragment) MDRKVAREFRHKVDFLIENDAEKDYLYDVLRMYHQTMDVAVLVGDLKLVINEPNRLPLFDAIRPLIPLKHQVEYDQLTP | > 5000 nM
harmonin-a Nter-PDZ1 fragment (residues 1-203) (domain or fragment) MDRKVAREFRHKVDFLIENDAEKDYLYDVLRMYHQTMDVAVLVGDLKLVINEPNRLPLFDAIRPLIPLKHQVEYDQLTPRRSRKLKEVRLDRLHPEGLGLSVRGGLEFGCGLFISHLIKGGQADSVGLQVGDEIVRINGYSISSCTHEEVINLIRTKKTVSIKVRHIGLIPVKSSPEESLKWQYVDQFVSESGGVRGGLGSPG | 58 nM
